The text below walks through data of patent US20230340119A1 (ARBELE, published 2023).

Assay [1] addresses T1, CD3 on T cells (UniProt P07766 23-207). Description: cell-based or functional assay.
In assay [2] the target is T1, CD3 on T cells. The assay can be described thus: cell-based or functional assay. The source holds these as a separate data set.
Assay [3] concerns the target T1, CD3 on T cells. The assay can be described thus: flow cytofluorimetry on peripheral blood T cells, fit of Median FI against concentration; one of three independent determinations. The method, then: (§1) The antibody binding to peripheral blood T cells was determined for T cell affinity over a range of concentration as shown in FIG. 8A. MFI were plotted and affinity (EC50) was determined using GraphPad PRISM. Three independent affinity determinations and their averages were indicated. […] Both h10Ta antibodies engaged CDH17 (on DLD1) and CD3. The signaling was determined according to manufacturer's protocol, at 24 hours using an antibody concentration range as indicated and Jurkat reporter cells at 100×10³ and DLD1 cells at 30×10³ per microtiter well (96-well plate). Luciferase expression/activity was measured using a multimode plate reader. […] Controls included no antibody or a CD3, CD28, CD2 agonist (Immunocult; StemCell) to induce maximal stimulation.

Assay [4] deals with T1, CD3 on T cells. The assay can be described thus: flow cytofluorimetry on peripheral blood T cells, EC50 from MFI, average of three determinations; h10Ta-wt, parental Fv Vk CDR1. The method, then:
as §1

Assay [5] addresses T2, Fibroblast activation protein alpha (FAP) on DLD1-FAP cells (UniProt Q12884 1-760, limits assumed).
T2 sequence (looked up): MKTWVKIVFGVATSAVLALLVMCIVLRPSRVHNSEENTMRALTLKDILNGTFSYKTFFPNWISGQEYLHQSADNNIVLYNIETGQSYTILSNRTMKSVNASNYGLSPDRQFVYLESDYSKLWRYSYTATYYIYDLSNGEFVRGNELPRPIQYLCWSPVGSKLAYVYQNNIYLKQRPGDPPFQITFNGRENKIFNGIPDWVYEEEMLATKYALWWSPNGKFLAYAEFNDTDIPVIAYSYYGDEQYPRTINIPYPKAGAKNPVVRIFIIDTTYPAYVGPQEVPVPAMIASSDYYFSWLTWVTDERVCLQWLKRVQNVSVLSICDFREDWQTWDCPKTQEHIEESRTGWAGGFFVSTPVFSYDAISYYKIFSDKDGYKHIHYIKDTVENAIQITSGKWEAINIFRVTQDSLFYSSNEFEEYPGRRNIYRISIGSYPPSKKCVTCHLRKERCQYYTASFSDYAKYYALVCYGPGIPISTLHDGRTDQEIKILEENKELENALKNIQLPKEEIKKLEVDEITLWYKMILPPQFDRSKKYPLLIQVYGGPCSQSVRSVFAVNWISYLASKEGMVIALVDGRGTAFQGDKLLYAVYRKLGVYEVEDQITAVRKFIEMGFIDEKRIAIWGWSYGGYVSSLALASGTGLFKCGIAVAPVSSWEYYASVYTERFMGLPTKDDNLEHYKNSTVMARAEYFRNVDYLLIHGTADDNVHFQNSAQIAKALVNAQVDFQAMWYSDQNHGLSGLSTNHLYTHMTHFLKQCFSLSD
The assay can be described thus: cell-based or functional assay.

Assay [6] addresses T1, CD3 on T cells. Description: flow cytofluorimetry on peripheral blood T cells. The method, then:
as §1

For assay [7], the target named is T1, CD3 on T cells. Description: flow cytofluorimetry on peripheral blood T cells, EC50 from MFI, average of three determinations; h10Ta-L4, modified CDRL1. On the procedure: as §1

Where “and” joins values, the source holds several entries; their conditions need not be identical. Identical values can stand only once.

T1 sequence (P07766 23-207): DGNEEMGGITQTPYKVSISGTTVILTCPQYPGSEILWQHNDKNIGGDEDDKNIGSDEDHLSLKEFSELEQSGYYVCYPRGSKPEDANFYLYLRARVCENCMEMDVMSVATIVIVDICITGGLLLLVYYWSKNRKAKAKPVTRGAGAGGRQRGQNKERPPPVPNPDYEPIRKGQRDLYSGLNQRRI

B1: h10Ta-wt (bispecific antibody)
light: DIQMTQSPSSLSASVGDRVTITCRASQDIRNYLNWYQQKPGKAPKLLIYYTSRLESGVPSRFSGSGSGTDYTLTISSLQPEDFATYYCQQGNTLPWTFGQGTKVEIKGAPGGGTHTCPPCPAPELLGGPSVFLFPPKPKDTLMISRTPEVTCVVVDVSQEDPEVQFNWYVDGVEVHNAKTKPREEQFNSTYRVVSVLTVLHQDWLNGKEYKCKVSNKGLPSSIEKTISKAKGQPREPQVYTLPPSREEMTKNQVSLSCAVKGFYPSDIAVEWESNGQPENNYKTTPPVLDSDGSFFLVSKLTVDKSRWQQGNVFSCSVMHEALHNHYTQKSLSLSPGK
heavy: EVQLLESGGGLVQPGGSLRLSCAASGFTFSSYAMSWVRQAPGKGLEWVAVIDSNGGSTYYPDTVKDRFTISRDNSKNTLYLQMNSLRAEDTAVYYCSSYTNLGAYWGQGTLVTVSAGGGGSGGGGSGGGGSDIQMTQSPSSLSASVGDRVTITCRASQDISGYLNWLQQKPGKAIKRLIYTTSTLDSGVPSRFSGSGSGTDFTLTISSLQPEDFATYYCLQYASSPFTFGGGTKVEIKPAGGGGGSEVQLVESGGGLVQPGGSLRLSCAASGYSFTGYTMNWVRQAPGKGLEWVALINPYKGVSTYNQKFKDRFTISVDKSKNTAYLQMNSLRAEDTAVYYCARSGYYGDSDWYFDVWGQGTLVTVSSGAPGGGTHTCPPCPAPELLGGPSVFLFPPKPKDTLMISRTPEVTCVVVDVSQEDPEVQFNWYVDGVEVHNAKTKPREEQFNSTYRVVSVLTVLHQDWLNGKEYKCKVSNKGLPSSIEKTISKAKGQPREPQVYTLPPSREEMTKNQVSLWCLVKGFYPSDIAVEWESNGQPENNYKTTPPVLDSDGSFFLYSKLTVDKSRWQQGNVFSCSVMHEALHNHYTQKSLSLSPGK
notes: also called h10Ta with the parental Fv; h10Ta (wt anti-CD3 Fv)
By Kd is commonly meant the concentration at which binding is half-saturated. A low value points to a tighter complex. Usually EC50 stands for the concentration needed to bring the measured effect to its halfway point. As to B1, in the assay with CD3 on T cells [1], the “EC50 (read off the curve), NFAT-luciferase induction in Jurkat reporter cells with DLD1 cells” value is roughly 0.4 nM. In the assay with CD3 on T cells [2], the “EC50 for AGS killing in the presence of T cells, 24 hours, E:T 4” value is 0.0014 nM and the “EC50 for killing DLD1 in the presence of T cells, 24 hours, E:T 4” value amounted to 0.0005 nM. The Kd in the assay with CD3 on T cells [3] is 50 nM and 54 nM and 75 nM. Further, the 50% effective concentration (EC50) with CD3 on T cells [4] came to 60 nM.

B2: hB2Ta (bispecific antibody)
light: DIQMTQSPSSLSASVGDRVTITCQASQDISNYLNWYQQKPGKAPKLLIYYTSRLESGVPSRFSGSGSGTDYTLTISSLQPEDFATYYCQQGNTLPWTFGQGTKVEIKGAPGGGTHTCPPCPAPELLGGPSVFLFPPKPKDTLMISRTPEVTCVVVDVSQEDPEVQFNWYVDGVEVHNAKTKPREEQFNSTYRVVSVLTVLHQDWLNGKEYKCKVSNKGLPSSIEKTISKAKGQPREPQVYTLPPSREEMTKNQVSLSCAVKGFYPSDIAVEWESNGQPENNYKTTPPVLDSDGSFFLVSKLTVDKSRWQQGNVFSCSVMHEALHNHYTQKSLSLSPGK
heavy: QVQLVQSGAEVKKPGASVKVSCKASGYSFTDYTMNWVRQAPGQGLEWMGVINPNHGISSYAQKFQGRVTMTRDTSTSTVYMELSSLRSEDTAVYYCVRRKISYDYDEGYAMDYWGQGTLVTVSSGGGGSGGGGSGGGGSDIVMTQSPDSLAVSLGERATINCKSSQNLLNSSNQKNYLAWYQQKPGQPPKLLVFFAATRESGVPDRFSGSGSGTDFTLTISSLQAEDVAVYYCQQHYSTPWTFGGGTKLEIKPAGGGGSEVQLVESGGGLVQPGGSLRLSCAASGYSFTGYTMNWVRQAPGKGLEWVALINPYKGVSTYNQKFKDRFTISVDKSKNTAYLQMNSLRAEDTAVYYCARSGYYGDSDWYFDVWGQGTLVTVSSGAPGGGTHTCPPCPAPELLGGPSVFLFPPKPKDTLMISRTPEVTCVVVDVSQEDPEVQFNWYVDGVEVHNAKTKPREEQFNSTYRVVSVLTVLHQDWLNGKEYKCKVSNKGLPSSIEKTISKAKGQPREPQVYTLPPSREEMTKNQVSLWCLVKGFYPSDIAVEWESNGQPENNYKTTPPVLDSDGSFFLYSKLTVDKSRWQQGNVFSCSVMHEALHNHYTQKSLSLSPGK
As for B2, the “EC50 of tumor cell cytotoxicity, DLD1-FAP cells with T cells, 24 hours, E:T 4” value in assay [5] came out at 0.041 nM.

B3: h10Ta-L4 (bispecific antibody)
light: DIQMTQSPSSLSASVGDRVTITCQASQDISNYLNWYQQKPGKAPKLLIYYTSRLESGVPSRFSGSGSGTDYTLTISSLQPEDFATYYCQQGNTLPWTFGQGTKVEIKGAPGGGTHTCPPCPAPELLGGPSVFLFPPKPKDTLMISRTPEVTCVVVDVSQEDPEVQFNWYVDGVEVHNAKTKPREEQFNSTYRVVSVLTVLHQDWLNGKEYKCKVSNKGLPSSIEKTISKAKGQPREPQVYTLPPSREEMTKNQVSLSCAVKGFYPSDIAVEWESNGQPENNYKTTPPVLDSDGSFFLVSKLTVDKSRWQQGNVFSCSVMHEALHNHYTQKSLSLSPGK
heavy: EVQLLESGGGLVQPGGSLRLSCAASGFTFSSYAMSWVRQAPGKGLEWVAVIDSNGGSTYYPDTVKDRFTISRDNSKNTLYLQMNSLRAEDTAVYYCSSYTNLGAYWGQGTLVTVSAGGGGSGGGGSGGGGSDIQMTQSPSSLSASVGDRVTITCRASQDISGYLNWLQQKPGKAIKRLIYTTSTLDSGVPSRFSGSGSGTDFTLTISSLQPEDFATYYCLQYASSPFTFGGGTKVEIKPAGGGGGSEVQLVESGGGLVQPGGSLRLSCAASGYSFTGYTMNWVRQAPGKGLEWVALINPYKGVSTYNQKFKDRFTISVDKSKNTAYLQMNSLRAEDTAVYYCARSGYYGDSDWYFDVWGQGTLVTVSSGAPGGGTHTCPPCPAPELLGGPSVFLFPPKPKDTLMISRTPEVTCVVVDVSQEDPEVQFNWYVDGVEVHNAKTKPREEQFNSTYRVVSVLTVLHQDWLNGKEYKCKVSNKGLPSSIEKTISKAKGQPREPQVYTLPPSREEMTKNQVSLWCLVKGFYPSDIAVEWESNGQPENNYKTTPPVLDSDGSFFLYSKLTVDKSRWQQGNVFSCSVMHEALHNHYTQKSLSLSPGK
notes: also called TriAx-A harboring L4
For B3, the “fold decrease in T cell affinity relative to the parental Fv (h10Ta-wt)” value with CD3 on T cells [6] amounted to 5 fold. In addition, in the assay with CD3 on T cells [1], the “EC50 (read off the curve), NFAT-luciferase induction in Jurkat reporter cells with DLD1 cells” value is roughly 0.8 nM. Also, in the assay with CD3 on T cells [2], the “EC50 for AGS killing in the presence of T cells, 24 hours, E:T 4” value is 0.002 nM; the “EC50 for killing DLD1 in the presence of T cells, 24 hours, E:T 4” value came to 0.0004 nM; the “fold decrease in T cell signaling, NFAT luciferase Jurkat reporter cells with DLD1 cells, 24 hours” value amounted to 2 fold. Moreover, the EC50 in the assay with CD3 on T cells [7] was found to be 320 nM. Moreover, in the assay with CD3 on T cells [3], the dissociation constant (Kd) is 236 nM and 358 nM and 365 nM.
